Results on 41 substances are retold here after article PMC12700808.

Some results are limits rather than exact numbers.

The target in assay [1] is Nup98-type FG domain comprising 52 perfect 12-mer GLFG repeat units (prf.GLFG52x12). In words: partitioning into an FG phase (confocal laser scanning microscopy); prf.GLFG52x12 domain phase-separated into FG particles; fluorescent species added, scanned 1 h later; 50 mM Tris-HCl pH 7.5, 150 or 250 mM NaCl, 0.5 mM IP6; signal in:out, or rim and centre normalised to wild type.

The target is the same in assay [2]. Description: FG phase partitioning assay.
The target is the same in assay [3]. Description: FG phase partitioning assay. This is another data set of the same source.
For assay [4] the target is unchanged. Description: FG phase partitioning assay. This is another data set of the same source.
Assay [5] addresses FG repeat domain of 669 residues with non-charged spacers and 36 FSFG motifs. In words: FG phase partitioning assay.
Where [6] appears, read: fluorescence intensity at rim of FG particles.
[7] abbreviates: fluorescence intensity in center of FG particles.
The mark [8] stands for this setting: signal in center of FG particles.

The substance “CLPs of CA V86E, filled with sinGFP4a (complex)” had a fold reduction of partitioning against wild type in assay [1] of over 10 fold.

Regarding “20-nm T1 pentamer-only capsid spheres (CA P1A+G60A+G61P), EGFP-labelled H87Q”, the response is 15000 in assay [2] (setting [6]) and 13000 in assay [2] (setting [7]). Also, the values for the percent of parent in assay [2] (signal at rim of FG particles) and in assay [2] (setting [8]) were 79% and 68%, respectively.

Consider “conical CLPs (capsid-like particles) of wild-type CA (CA-P1A), filled with sinGFP4a E45A”, for which the response in assay [3] (setting [6]) was found to be 29000; in assay [3] (setting [7]), 34000. The percent of parent in assay [4] (signal at rim of FG particles) and in assay [4] (setting [8]) was 110% throughout.

Consider “conical CLPs (capsid-like particles) of wild-type CA (CA-P1A), filled with sinGFP4a N57A”, for which the response in assay [2] (setting [6]) came out at 23000; in assay [2] (setting [7]), 1800; in assay [3] (setting [6]) it was 21000; in assay [3] (setting [7]), 1600. Moreover, the percent of parent was 85% in assay [2] (signal at rim of FG particles), 7% in assay [2] (setting [8]) and 80% in assay [4] (signal at rim of FG particles).

Consider “CLPs of CA H87Q, filled with sinGFP4a (complex)”, for which, in assay [1], the reduction in partitioning against wild type came out at 50%.

For the substance “conical CLPs (capsid-like particles) of wild-type CA (CA-P1A), filled with sinGFP4a N57A; H87Q; A92E; G94D”, the response in assay [2] (setting [6]) came out at 370; in assay [2] (setting [7]) it was 440. For the same substance, the percent of parent turned out to be 1.4% in assay [2] (signal at rim of FG particles) and 1.7% in assay [2] (setting [8]).

On to “CLPs of CA G94D, filled with sinGFP4a (complex)”, for which the partitioning, percent of the wild-type level (% of the wild-type level) in assay [1] was found to be 5.

Consider “conical CLPs (capsid-like particles) of wild-type CA (CA-P1A), filled with sinGFP4a K182R”, for which the response in assay [3] (setting [6]) was determined as 28000; in assay [3] (setting [7]) it was 34000. The percent of parent in assay [4] (setting [8]) worked out at 110%.

With “conical CLPs (capsid-like particles) of wild-type CA (CA-P1A), filled with sinGFP4a I91G”, the response was determined as 30000 in assay [2] (setting [6]) and 33000 in assay [2] (setting [7]).

In the case of “CLPs of CA A88E, filled with sinGFP4a (complex)”, the fold reduction of partitioning against wild type in assay [1] was over 10 fold.

Regarding “conical CLPs (capsid-like particles) of wild-type CA (CA-P1A), filled with sinGFP4a N57A; A92E; G94D”, the values for the response in assay [2] (setting [6]) and in assay [2] (setting [7]) were 4300 and 660, respectively. Also, the percent of parent in assay [2] (signal at rim of FG particles) is 16%; in assay [2] (setting [8]) it was 2.5%.

Regarding “conical CLPs (capsid-like particles) of wild-type CA (CA-P1A), filled with sinGFP4a P90A”, the response was found to be 29000 in assay [3] (setting [6]) and 32000 in assay [3] (setting [7]). In addition, in assay [4] (signal at rim of FG particles), the percent of parent stood at 110%.

Consider “conical CLPs (capsid-like particles) of wild-type CA (CA-P1A), filled with sinGFP4a N57A; A92E”, for which the response in assay [2] (setting [6]) was determined as 14000; in assay [2] (setting [7]) it was 1100. For the same substance, the percent of parent in assay [2] (signal at rim of FG particles) worked out at 52%; in assay [2] (setting [8]), 4.2%.

Regarding “20-nm T1 pentamer-only capsid spheres (CA P1A+G60A+G61P), EGFP-labelled G89V”, the results for the response in assay [5] (setting [6]) and in assay [5] (setting [7]) were 31000 and 34000, respectively. Further, the values for the percent of parent in assay [5] (signal at rim of FG particles) and in assay [5] (setting [8]) were 160% and 170%, respectively.

With “20-nm T1 pentamer-only capsid spheres (CA P1A+G60A+G61P), EGFP-labelled A92E”, the results for the response in assay [2] (setting [6]) and in assay [2] (setting [7]) were 11000 and 5300, respectively. In addition, the percent of parent was determined as 58% in assay [2] (signal at rim of FG particles) and 28% in assay [2] (setting [8]).

On to “CLPs of CA I91E, filled with sinGFP4a (complex)”, for which the fold reduction of partitioning against wild type in assay [1] is over 10 fold.

The substance “CLPs of CA M96E, filled with sinGFP4a (complex)” came in with a fold reduction of partitioning against wild type in assay [1] of over 10 fold.

As to “20-nm T1 pentamer-only capsid spheres (CA P1A+G60A+G61P), EGFP-labelled H87Q; A92E; G94D”, the response in assay [2] (setting [6]) worked out at 2300; in assay [2] (setting [7]) it was 190. Besides, the percent of parent is 12% in assay [2] (signal at rim of FG particles) and 1% in assay [2] (setting [8]).

Turning to “20-nm T1 pentamer-only capsid spheres (CA P1A+G60A+G61P), EGFP-labelled V86E; A88E; I91E; A92E”, the response in assay [2] (setting [6]) stood at 74. For the same substance, the percent of parent in assay [2] (signal at rim of FG particles) and in assay [2] (setting [8]) was 0.4% in each case.

Consider “20-nm T1 pentamer-only capsid spheres (CA P1A+G60A+G61P), EGFP-labelled G94D”, for which the response in assay [2] (setting [6]) amounted to 15000; in assay [2] (setting [7]) it was 9600. Besides, the percent of parent in assay [2] (signal at rim of FG particles) was determined as 79%.

As for “20-nm T1 pentamer-only capsid spheres (CA P1A+G60A+G61P), EGFP-labelled N57A”, the figures for the response in assay [2] (setting [6]) and in assay [2] (setting [7]) were 8500 and 400, respectively. In addition, the percent of parent in assay [2] (signal at rim of FG particles) was 45%; in assay [2] (setting [8]), 2.1%.

For “conical CLPs (capsid-like particles) of wild-type CA (CA-P1A), filled with sinGFP4a A77V”, the response in assay [3] (setting [6]) worked out at 27000; in assay [3] (setting [7]), 29000. For the same substance, in assay [4] (setting [8]), the percent of parent was determined as 94%.

Turning to “conical CLPs (capsid-like particles) of wild-type CA (CA-P1A), filled with sinGFP4a M96G”, the response in assay [2] (setting [6]) was 28000; in assay [2] (setting [7]) it was 30000. Moreover, the percent of parent in assay [2] (setting [8]) worked out at 90%.

As to “conical CLPs (capsid-like particles) of wild-type CA (CA-P1A), filled with sinGFP4a N74D”, the values for the response in assay [3] (setting [6]) and in assay [3] (setting [7]) were 30000 and 33000, respectively. The percent of parent in assay [4] (signal at rim of FG particles) and in assay [4] (setting [8]) was 110% throughout.

Regarding “CLPs of CA A92E, filled with sinGFP4a (complex)”, in assay [1], the fold reduction of partitioning against wild type is over 10 fold and the partitioning, percent of the wild-type level (% of the wild-type level) came to 5.

Take “conical CLPs (capsid-like particles) of wild-type CA (CA-P1A), filled with sinGFP4a A88G”: the response in assay [2] (setting [6]) is 26000; in assay [2] (setting [7]), 30000. The percent of parent in assay [2] (signal at rim of FG particles) and in assay [2] (setting [8]) was 90% in each case.

Take “conical CLPs (capsid-like particles) of wild-type CA (CA-P1A), filled with sinGFP4a G116A”: the response in assay [3] (setting [6]) was 27000; in assay [3] (setting [7]), 32000.

In the case of “conical CLPs (capsid-like particles) of wild-type CA (CA-P1A), filled with sinGFP4a L136M”, the figures for the response in assay [3] (setting [6]) and in assay [3] (setting [7]) were 28000 and 30000, respectively.

Take “conical CLPs (capsid-like particles) of wild-type CA (CA-P1A), filled with sinGFP4a V86G”: the response turned out to be 27000 in assay [2] (setting [6]) and 31000 in assay [2] (setting [7]). Also, the percent of parent in assay [2] (signal at rim of FG particles) and in assay [2] (setting [8]) was 90% each time.

“conical CLPs (capsid-like particles) of wild-type CA (CA-P1A), EGFP-labelled (complex)” showed a partition coefficient (in:out) in assay [1] of 1000.

In the case of “conical CLPs (capsid-like particles) of wild-type CA (CA-P1A), filled with sinGFP4a G89V”, the response in assay [3] (setting [6]) was 29000; in assay [3] (setting [7]) it was 30000. Moreover, the percent of parent in assay [4] (setting [8]) amounted to 110%.

In the case of “conical CLPs (capsid-like particles) of wild-type CA (CA-P1A), filled with sinGFP4a R143A”, the response stood at 28000 in assay [3] (setting [6]) and 30000 in assay [3] (setting [7]).

Take “conical CLPs (capsid-like particles) of wild-type CA (CA-P1A), filled with sinGFP4a N57A; G94D”: the response was 17000 in assay [2] (setting [6]) and 1200 in assay [2] (setting [7]). Also, the percent of parent was found to be 63% in assay [2] (signal at rim of FG particles) and 4.6% in assay [2] (setting [8]).

For “20-nm T1 pentamer-only capsid spheres (CA P1A+G60A+G61P), EGFP-labelled Q9E”, the response is 15000 in assay [2] (setting [6]) and 14000 in assay [2] (setting [7]). Moreover, the figures for the percent of parent in assay [2] (signal at rim of FG particles) and in assay [2] (setting [8]) were 79% and 74%, respectively.

On to “conical CLPs (capsid-like particles) of wild-type CA (CA-P1A), filled with sinGFP4a A92G”, for which the response in assay [2] (setting [6]) worked out at 26000; in assay [2] (setting [7]) it was 32000. Further, the percent of parent in assay [2] (signal at rim of FG particles) and in assay [2] (setting [8]) was 90% in each case.

With “20-nm T1 pentamer-only capsid spheres (CA P1A+G60A+G61P), EGFP-labelled Q9E; A92E”, the response in assay [2] (setting [6]) was found to be 5800; in assay [2] (setting [7]) it was 290. The percent of parent in assay [2] (signal at rim of FG particles) was 31%; in assay [2] (setting [8]), 1.5%.

With “CLPs of CA H87E, filled with sinGFP4a (complex)”, the fold reduction of partitioning against wild type in assay [1] was 15 fold.

“CLPs of CA R132K, filled with sinGFP4a (complex)”: in assay [1], the reduction in partitioning against wild type turned out to be 50%.

Take “conical CLPs (capsid-like particles) of wild-type CA (CA-P1A), filled with sinGFP4a H87G”: the response in assay [2] (setting [6]) and in assay [2] (setting [7]) was 30000 each time. In addition, the percent of parent in assay [2] (setting [8]) stood at 90%.

As to mCherry, the partition coefficient (in:out) in assay [1] was under 0.1.

In turn, EGFP displayed a partition coefficient (in:out) in assay [1] of under 0.1.
